Target: T1, spike protein of alphacoronavirus NL63-CoV (HCoV-NL63, UniProt Q6Q1S2 16-1291)
T1 sequence: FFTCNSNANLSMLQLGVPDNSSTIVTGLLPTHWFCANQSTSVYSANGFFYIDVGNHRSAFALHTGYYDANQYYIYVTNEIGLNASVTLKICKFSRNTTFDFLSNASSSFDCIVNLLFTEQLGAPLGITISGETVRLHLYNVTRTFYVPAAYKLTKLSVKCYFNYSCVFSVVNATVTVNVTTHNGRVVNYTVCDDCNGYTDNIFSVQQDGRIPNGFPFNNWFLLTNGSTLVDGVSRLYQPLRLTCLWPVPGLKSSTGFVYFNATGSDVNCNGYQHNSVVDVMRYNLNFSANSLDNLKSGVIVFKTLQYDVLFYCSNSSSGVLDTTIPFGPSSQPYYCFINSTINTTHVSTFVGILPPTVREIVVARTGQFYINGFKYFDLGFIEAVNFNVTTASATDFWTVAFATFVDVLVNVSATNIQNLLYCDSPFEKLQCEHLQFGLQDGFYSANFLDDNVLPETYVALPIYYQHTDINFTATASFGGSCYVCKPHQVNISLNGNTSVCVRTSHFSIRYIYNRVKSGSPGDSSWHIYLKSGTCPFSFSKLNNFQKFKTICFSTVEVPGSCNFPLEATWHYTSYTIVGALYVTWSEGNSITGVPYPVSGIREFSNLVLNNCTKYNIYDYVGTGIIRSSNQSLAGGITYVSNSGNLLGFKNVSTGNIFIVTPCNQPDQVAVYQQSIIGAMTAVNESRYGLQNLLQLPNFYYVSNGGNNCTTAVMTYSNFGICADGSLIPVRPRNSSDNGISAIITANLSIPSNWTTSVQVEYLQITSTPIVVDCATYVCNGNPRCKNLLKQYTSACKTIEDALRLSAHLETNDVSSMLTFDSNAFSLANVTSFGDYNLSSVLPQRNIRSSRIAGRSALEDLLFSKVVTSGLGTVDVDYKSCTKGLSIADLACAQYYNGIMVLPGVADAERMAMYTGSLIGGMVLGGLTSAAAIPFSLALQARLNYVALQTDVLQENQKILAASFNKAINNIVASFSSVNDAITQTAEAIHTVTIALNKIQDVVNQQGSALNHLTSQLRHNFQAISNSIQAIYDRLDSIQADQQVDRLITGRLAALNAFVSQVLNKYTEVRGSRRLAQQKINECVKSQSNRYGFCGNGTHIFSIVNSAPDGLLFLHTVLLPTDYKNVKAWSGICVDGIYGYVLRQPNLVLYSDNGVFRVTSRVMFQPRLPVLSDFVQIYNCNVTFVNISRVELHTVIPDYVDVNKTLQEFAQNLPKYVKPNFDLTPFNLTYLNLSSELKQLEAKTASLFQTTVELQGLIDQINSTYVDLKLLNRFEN
Experiment: ELISA on alphacoronavirus spike proteins (Fig 37)

B1: antibody S2P6 (antibody 420 1 1), human monoclonal antibody expressed as recombinant human IgG1 (antibody, V domains shown)
VH: EVQLVQSGAEVKKPGASVKVSCKASGYTFTSQYMHWVRQAPGQGLEWIGIINPSGVHTSYAQKFQGRVTLTRDTSTSTLYMELSSLRSEDTAVYYCARGSPKGAFDYWGQGTLVTVSS
VL: not shown
binding result: no binding
